These results are taken from US20240294637A1 (DENDROCYTE BIOTECH, published 2024).

Experiment [1] concerns the target T1, CD300f-Ig fusion protein (recombinant CD300f-Fc protein, Sino Biologicals) (human, UniProt Q8TDQ1 20-156).
T1 construct: domain: CD300f Ig-like domain; Bought reagent; also called CD300f-Fc recombinant protein; CD300f Ig-like domain; not shown: Ig Fc part (captured by goat anti-human Ig Fc / human IgG Fc capture sensor)
T1 sequence (looked up): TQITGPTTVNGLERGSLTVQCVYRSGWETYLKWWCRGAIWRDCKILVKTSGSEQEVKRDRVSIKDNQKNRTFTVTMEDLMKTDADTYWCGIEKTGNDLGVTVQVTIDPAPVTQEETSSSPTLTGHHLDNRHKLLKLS
In words: Bio-Layer Interferometry (BLItz), CD300f-Fc on AHC biosensor, DCR-2 at 8.333, 16.67, 33.33, 66.67 and 0 nM, global 1:1 fit; same value in rows Index 1 to 4; Ka Error 7.087e3. On the procedure: (§1) DCR-2 was assessed for affinity for CD300f using a BLItz System (Fortebio, Pall Life Sciences). CD300f-Fc recombinant protein was immobilized to a human IgG Fc capture sensor. A five point dilution series of each mAb was tested for association and dissociation. Kinetic rate constants were estimated using BLItz Pro software with a global fitting 1:1 binding model.
(§2) The kinetics of binding of DCR-2 to CD300f-Fc recombinant protein was determined using Bio-Layer Interferometry analysis on a BLItz System (Fortebio, Pall Life Sciences).

In experiment [2] the target is CD300f^L4 expressed in CHO cells (isoform of CD300f which includes the amino acid sequence …) (human) (UniProt Q8TDQ1). In words: flow cytometry MFI ratio, CD300f^L4 against CD300f^S4 CHO transfectants.
Experiment [3] concerns the target T2, CD300a on CHO transfectant cell surface (UniProt Q9UGN4 18-299, limits assumed).
T2 construct: whole, on cells; Said to be 'similarly expressed in CHO cells'; also called CD300a transfected cells
T2 sequence (looked up): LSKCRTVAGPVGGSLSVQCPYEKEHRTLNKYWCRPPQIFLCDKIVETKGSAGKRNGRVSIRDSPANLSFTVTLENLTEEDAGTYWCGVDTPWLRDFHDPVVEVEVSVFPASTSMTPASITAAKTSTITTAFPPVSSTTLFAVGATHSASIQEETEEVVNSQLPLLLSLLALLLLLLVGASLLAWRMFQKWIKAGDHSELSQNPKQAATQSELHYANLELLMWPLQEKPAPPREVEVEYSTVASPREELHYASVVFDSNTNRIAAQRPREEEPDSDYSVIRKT
In words: flow cytometry on CD300a CHO transfectants.

In experiment [4] the target is T1, CD300f-Ig fusion protein (recombinant …). In words: Bio-Layer Interferometry (BLItz), CD300f-Fc on AHC biosensor, DCR-2 at 8.333, 16.67, 33.33, 66.67 and 0 nM, global 1:1 fit; same value in rows Index 1 to 4. As for the experimental part: as §1, §2
Experiment [5] has the same target. The experiment in a line: Bio-Layer Interferometry (BLItz), CD300f-Fc on AHC biosensor, DCR-2 at 8.333, 16.67, 33.33, 66.67 and 0 nM, global 1:1 fit; same value in rows Index 1 to 4; Kd Error 3.58e-5. As for the experimental part:
as §1, §2

B1: Monoclonal antibody DCR-2 (antibody, V domains shown)
VH: MESGGGLVQPGGPLKLSCAASGFGFSGSWMSWVRQAPGKGLEWIGQINPDSSTINYTPSLKDKFIISRDNAKNTLYLQINKVRSEDTALYYCARRGFFEGYSAWFAYWGQGTLVTV
VL: ILMTQTPKFLLVSAGDRVTITCKASQSVSNDVAWYQQKPGQSPSLLIYYASNRNTGVPDRFTGSGYETDFTFTISTVQAEDLAVYFCQQDYTSPWTFGGGTKLEIKR
notes: also called mAb DCR-2
For B1, the kon in experiment [1] came to 514000 M⁻¹ s⁻¹. For the same molecule, the fold difference in binding compared to CD300f^S4 in experiment [2] is below 2 fold. Moreover, in experiment [3], the binding result is reported as “no binding”. The dissociation constant (Kd) in experiment [4] worked out at 0.366 nM. The koff in experiment [5] worked out at 0.000188 s⁻¹.
